In paper PMC12717009:

Columns and labels:
[1] = biological target: Nup116FG (amino acids 1–725), hydrogel particles (S. cerevisiae) (UniProt Q02630); experiment: FG-hydrogel permeation assay (confocal fluorescence); preformed NupFG hydrogel particles (3.3 µM total NupFG, 5% FMAL-labelled, TBS); Kap95–AF568 in 150 mM NaCl, 100 mM Tris pH 8 added
[2] = biological target: isolated native yeast (wild type) nuclear pore complex (S. cerevisiae (endogenous)) (UniProt Q02455); experiment: affinity purification with mass spectrometry; whole NPCs captured through Mlp1-ppx-PrA from cryogenically lysed yeast (20 mM HEPES–KOH pH 7.4, 50 mM potassium acetate, 20 mM NaCl, 2 mM MgCl2, Triton X-100, Tween-20), native elution by protease cleavage; label-free quantitation; +CP (after isolation) compared with −CP (72 h in buffer) NPCs
[3] = biological target: NPCs isolated from an Mlp1ppxPrA pNup84–mCherry strain expressing Kap95–GFP (S. cerevisiae (endogenous) | S. cerevisiae) (UniProt Q02455); experiment: immunofluorescence of isolated NPCs on coverglass (confocal); isolated NPCs kept in PBS at 4 °C for 0, 24, 48 and 72 h, put on poly-L-lysine coverglass; anti-eGFP–AF647 signal at spots co-localized with anti-mCherry–AF568; single-exponential fit of the loss

Substance: Kap95 labelled with Alexa Fluor 568 C5 maleimide (from UniProt Q06142 1-861) (natural protein)
- concentration of Kap95–AF568 in Nup116FG particles [1]: 1.58 µM

Substance: endogenous Kap95 (from UniProt Q06142 1-861) (natural protein)
- stoichiometry N (Kap95 molecules per NPC) [2]: 15 to 20

Substance: Kap95–GFP expressed under its native promoter (from UniProt Q06142 1-861) (natural protein)
- half-life of dissociation (t1/2) [3]: 20.1 h
